From paper PMC6181050 come the findings set out here.

In assay [1] the target is PSI core complex (Chlamydomonas reinhardtii) (UniProt P12154). Put plainly: co-purification by sucrose density gradient ultracentrifugation with 14C autoradiography; PSI-LHCI supercomplex from uniformly 14C-labelled wild-type cells; NaBr-washed thylakoids solubilised with 0.8% beta-DDM; TLS-55 rotor, 259,000g, 2.5 h; polypeptides separated by three SDS-PAGE systems; signal divided by carbon number and normalised to PSAF.

Assay [2] shares this target. Put plainly: co-purification by sucrose density gradient ultracentrifugation with immunoblotting; PSI-LHCI complex from the ΔLHCA5 mutant (no LHCA5); thylakoids solubilised with 1% beta-DDM; SW41Ti, 288,000g, 4°C, 16 h; immunoblots normalised to PSAD. On the technique in general: Immunoblotting shows a protein as a band on a membrane.
The target of assay [3] is PSAF (Chlamydomonas reinhardtii). Put plainly: co-purification by sucrose density gradient ultracentrifugation with 14C autoradiography; PSI-LHCI supercomplex from uniformly 14C-labelled wild-type cells; NaBr-washed thylakoids solubilised with 0.8% beta-DDM; TLS-55 rotor, 259,000g, 2.5 h; polypeptides separated by three SDS-PAGE systems; signal divided by carbon number and normalised to PSAF.

Sequence of UniProt P12154 (P12154 whole entry, looked up, one chain of several): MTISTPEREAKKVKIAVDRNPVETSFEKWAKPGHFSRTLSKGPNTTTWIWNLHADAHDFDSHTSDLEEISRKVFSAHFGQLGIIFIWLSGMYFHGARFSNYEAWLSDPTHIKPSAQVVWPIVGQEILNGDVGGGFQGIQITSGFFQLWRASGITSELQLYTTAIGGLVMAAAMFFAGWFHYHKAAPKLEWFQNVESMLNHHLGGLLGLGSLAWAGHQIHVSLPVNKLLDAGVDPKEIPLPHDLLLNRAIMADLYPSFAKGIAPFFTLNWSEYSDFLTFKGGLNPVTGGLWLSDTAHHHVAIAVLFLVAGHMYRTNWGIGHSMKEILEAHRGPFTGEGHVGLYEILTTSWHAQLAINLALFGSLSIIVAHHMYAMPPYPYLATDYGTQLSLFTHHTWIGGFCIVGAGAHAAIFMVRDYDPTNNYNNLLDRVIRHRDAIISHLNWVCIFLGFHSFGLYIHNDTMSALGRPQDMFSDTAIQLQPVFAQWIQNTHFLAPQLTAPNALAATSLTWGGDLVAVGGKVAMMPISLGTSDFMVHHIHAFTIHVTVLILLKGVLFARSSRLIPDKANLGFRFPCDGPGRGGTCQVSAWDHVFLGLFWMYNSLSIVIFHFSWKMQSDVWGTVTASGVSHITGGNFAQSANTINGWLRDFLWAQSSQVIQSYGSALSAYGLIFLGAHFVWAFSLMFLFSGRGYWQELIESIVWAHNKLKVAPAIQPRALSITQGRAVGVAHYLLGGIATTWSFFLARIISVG

In assay [1], LHCA9 (natural protein) displayed a stoichiometry N (copy, on a PSAF basis) of 1.

Substance LHCA3 (natural protein) displayed a stoichiometry N (copy, on a PSAF basis) in assay [1] of 1.

Regarding LHCA8 (natural protein), in assay [1], the stoichiometry N (copy, on a PSAF basis) came out at 1.

As for LHCA1 (natural protein), the amount in the PSI-LHCI supercomplex from the ΔLHCA5 mutant, percent of the control level in assay [2] came to 50%. For the same substance, the stoichiometry N (copies, on a PSAF basis) in assay [1] is 1.81.

In assay [1], LHCA2 (natural protein) registered a stoichiometry N (copy, on a PSAF basis) of 1.

Regarding PSAD (natural protein), in assay [3], the stoichiometry N (relative abundance, on a PSAF basis) is 1.17.

LHCA7 (natural protein) showed a stoichiometry N (copy, on a PSAF basis) in assay [1] of 1.

In assay [1], LHCA5 (natural protein) gave a stoichiometry N (copy, on a PSAF basis) of 1.
